According to patent US12303551B2, “Cellular immunotherapy compositions and uses thereof” (CERO THERPEUTICS HOLDINGS, INC., priority 2018, dated 2025):

How the values were obtained:
[1] = tested on: HPV+ SCC152 target cells; test: Mass cytometry (CyTOF) viSNE marker analysis of CER-transduced CD4+ T cells after antigen encounter; assay type: cell-based; settings: for memory formation after antigen encounter: CER-transduced CD4+ T cells; for viSNE islands expressing T cell activation marker CD69 / viSNE islands expressing intracellular marker IFNγ: CER-transduced CD4+ T cells co-cultured with E7 TCR CD8+ T cells and SCC152; for viSNE islands expressing naïve T cell marker CD45RA within the CCR7+ population: compared to controls
Excerpt: FIG. 64A-64B show viSNE maps of mass cytometry data of CER-transduced CD4+ T cells upon antigen encounter. CER-transduced CD4+ T cells were co-cultured with E7-specific TCR-transduced CD8+ T cells and HPV+ SCC152 target cells and then interrogated by mass cytometry (CyTof). Intact CER-CD4+ T cells are shown in plots displaying tSNE1 and tSNE2 axes. Nine intracellular markers were used for the viSNE analysis. Each dot represents a single cell. […] FIG. 64B: Populations of CD4^+ T cells were generated using a clustering algorithm from all 32 markers and overlaid onto the viSNE map.
(§1) FIGS. 65A-65B show viSNE maps of mass cytometry data of CER-expressing CD4+ T cells upon antigen encounter. CER-transduced CD4+ T cells were co-cultured with E7-specific TCR-transduced CD8+ T cells and HPV+ SCC152 target cells and then interrogated by mass cytometry (CyTof). Intact CER-CD4+ T cells are shown in plots displaying tSNE1 and tSNE2 axes. Eighteen cell surface markers were used for the viSNE analysis. Each dot represents a single cell. FIG. 65A: Populations of CD4^+ T cells were generated using a clustering algorithm from all 18 markers and overlaid onto the viSNE map. […] FIG. 65B: Color plots show the phenotype across viSNE ‘islands.’ Red represents high expression and blue represents low expression for each marker. Highlighted region indicates cells expressing T cell activation marker CD69.
as §1, with “FIGS. 66A-66B” for “FIGS. 65A-65B”, “FIG. 66A:” for “FIG. 65A:”, “FIG. 66B:” for “FIG. 65B:”, “cells the naïve” for “cells expressing”, “cell” for “cell activation”, “marker CD45RA.” for “marker CD69.”
CD4+ T cells were transduced with lentiviral vector comprising CER104, CER116, or CER117 nucleic acid. CER104 (SEQ ID NO:139) comprises a Tim4 binding domain, Tim4 transmembrane domain, and an engulfment signaling domain comprising a primary engulfment signaling domain comprising a TLR8 signaling domain and a secondary engulfment signaling domain comprising a DAP12 signaling domain. CER116 (SEQ ID NO:152) comprises a Tim4 binding domain, Tim4 transmembrane domain, and an engulfment signaling domain comprising a primary engulfment signaling domain comprising a TRAF6 signaling domain and a secondary engulfment signaling domain comprising a TLR8 signaling domain. CER117 (SEQ ID NO:153) comprises a Tim4 binding domain, Tim4 transmembrane domain, and an engulfment signaling domain comprising a primary engulfment signaling domain comprising a TLR8 signaling domain and a secondary engulfment signaling domain comprising a TRAF6 signaling domain. CER-transduced CD4+ T cells were co-cultured with E7 TCR-transduced CD8+ T cells and HPV+ SCC152 target cells and interrogated by mass cytometry (CyTOF) with viSNE for visualization of high dimensional single cell data (FIGS. 64-66). Intact CER-transduced CD4+ T cells are shown in plots displaying tSNE1 (horizontal) and tSNE2 (vertical) axes. 27 intracellular markers were used for the viSNE analysis. Each dot represents a single cell. […] Red represents high expression and blue represents low expression for each marker. Populations of CD4^+ T cells were generated using a clustering algorithm from all 27 markers and overlaid onto the viSNE map. […] Populations of CD4^+ T cells were generated using a clustering algorithm from all 18 markers and overlaid onto the viSNE map (FIG. 65A). […]

[2] = tested on: SCC152 target cells; test: Phagocytosis of SCC152 by CD4+ T cell/CER, fluorescence microscopy with hybrid capture; assay type: cell-based; settings: TRAF-domain CERs, 4 hours, 1:1:0.5 (CD8:CD4:target cell); versus CD4+ control + CD8+/E7 TCR
Procedure: (§2) FIG. 28 is a bar graph representing quantification of CD4+ T cell-CER mediated phagocytosis of SCC152 target cells. Results calculated as ((number of phagocytic target events)/(total number of effectors))*100 from 3×3 40× images, 4 hours after initiation of co-culture assay. CD8+ T cells transduced with HPV16 E7 TCR and CD4+ T cells transduced with selected CERs (CER5, CER17, CER19, CER21, CER23, CER26, CER27, CER103b, CER104, CER105, CER106, or CER116) were co-cultured with SCC152 squamous head and neck carcinoma target cells at a 1:1:0.5 ratio for 4 hours and imaged.
as §2, with “29” for “28”, “(median area ratio” for “((number”, “of” for “of phagocytic”, “events in effector cells*% phagocytosis)” for “events)/(total number of effectors))*100”
(§3) FIG. 55 is a bar graph representing quantification of CD4+ T cell-CER mediated phagocytosis of SCC152 target cells. Percent phagocytosis was calculated as ((number of phagocytic target events)/(total number of effector cells))*100. These numbers were calculated from 3×3 images captured by Keyence BZ-X710 fluorescence microscope at 40× resolution, 4 hours after initiation of co-culture assay. CD8+ T cells transduced with HPV16 E7 TCR and CD4+ T cells transduced with a selected CER (CER29, CER30, CER110, CER112, CER113, CER114, CER116, or CER117) were co-cultured with SCC152 target cells at a 1:1:0.5 ratio (CD8:CD4:target cell) for 4 hours and imaged.
as §3, with “56” for “55”, “Adjusted phagocytic index” for “Percent phagocytosis”, “(median area ratio” for “((number”, “of” for “of phagocytic”, “events in” for “events)/(total number of”, “cells*% phagocytosis).” for “cells))*100.”
Phagocytic activity of CD4+ T cell/CER+CD8+ T cell/HPV16 E7 TCR combinations co-cultured with SCC152 cells was visualized and quantified using KEYENCE BZ-X710 fluorescence microscope, […] and hybrid capture software.

Molecule	memory formation after antigen encounter [1]	viSNE islands expressing T cell activation marker CD69 [1]	viSNE islands expressing intracellular marker IFNγ [1]	viSNE islands expressing naïve T cell marker CD45RA within the CCR7+ population [1]	engulfment of SCC152 target cells (percent phagocytosis, adjusted phagocytic index) [2]
CER104: Chimeric engulfment receptor: Tim4 binding, Tim4 transmembrane, TLR8 and DAP12 signaling; SEQ ID NO: 139 (protein, CER104, amino acids 1-22 are signal peptide) MSKGLLLLWLVTELWWLYLTPAASEDTIIGFLGQPVTLPCHYLSWSQSRNSMCWGKGSCPNSKCNAELLRTDGTRIISRKSTKYTLLGKVQFGEVSLTISNTNRGDSGVYCCRIEVPGWFNDVKKNVRLELRRATTTKKPTTTTRPTTTPYVTTTTPELLPTTVMTTSVLPTTTPPQTLATTAFSTAVTTCPSTTPGSFSQETTKGSAFTTESETLPASNHSQRSMMTISTDIAVLRPTGSNPGILPSTSQLTTQKTTLTTSESLQKTTKSHQINSRQTILIIACCVGFVLMVLLFLAFLHHLFYWDVWFIYNVCLAKVKGYRSLSTSQTFYDAYISYDTKDASVTDWVINELRYHLEESRDKNVLLCLEERDWDPGLAIIDNLMQSINQSKKTVFVLTKKYAKSWNFKTAFYLALQRLMDENMDVIIFILLEPVLQHSQYLRLRQRICKSSILQWPDNPKAEGLFWQTLRNVVLTENDSRYNNMYVDSIKQYYFLGRLVPRGRGAAEAATRKQRITETESPYQELQGQRSDVYSDLNTQRPYYK	associated with memory formation after antigen encounter	enrichment of islands expressing the T cell activation marker CD69	enrichment of islands expressing the intracellular marker IFNγ	loss of islands expressing the naïve T cell marker CD45RA	
CER116: Chimeric engulfment receptor: Tim4 binding, Tim4 transmembrane, TRAF6 and TLR8 signaling; SEQ ID NO: 152 (protein, CER116, amino acids 1-22 are signal peptide) MSKGLLLLWLVTELWWLYLTPAASEDTIIGFLGQPVTLPCHYLSWSQSRNSMCWGKGSCPNSKCNAELLRTDGTRIISRKSTKYTLLGKVQFGEVSLTISNTNRGDSGVYCCRIEVPGWFNDVKKNVRLELRRATTTKKPTTTTRPTTTPYVTTTTPELLPTTVMTTSVLPTTTPPQTLATTAFSTAVTTCPSTTPGSFSQETTKGSAFTTESETLPASNHSQRSMMTISTDIAVLRPTGSNPGILPSTSQLTTQKTTLTTSESLQKTTKSHQINSRQTILIIACCVGFVLMVLLFLAFLMSLLNCENSCGSSQSESDCCVAMASSCSAVTKDDSVGGTASTGNLSSSFMEEIQGYDVEFDPPLESKYECPICLMALREAVQTPCGHRFCKACIIKSIRDAGHKCPVDNEILLENQLFPDNFAKREILSLMVKCPNEGCLHKMELRHLEDHQAHCEFALMDCPQCQRPFQKFHINIHILKDCPRRQVSCDNCAASMAFEDKEIHDQNCPLANVICEYCNTILIREQMPNHYDLDCPTAPIPCTFSTFGCHEKMQRNHLARHLQENTQSHMRMLAHHLFYWDVWFIYNVCLAKVKGYRSLSTSQTFYDAYISYDTKDASVTDWVINELRYHLEESRDKNVLLCLEERDWDPGLAIIDNLMQSINQSKKTVFVLTKKYAKSWNFKTAFYLALQRLMDENMDVIIFILLEPVLQHSQYLRLRQRICKSSILQWPDNPKAEGLFWQTLRNVVLTENDSRYNNMYVDSIKQY	associated with memory formation after antigen encounter	enrichment of islands expressing the T cell activation marker CD69	enrichment of islands expressing the intracellular marker IFNγ	loss of islands expressing the naïve T cell marker CD45RA	enhanced engulfment
CER117: Chimeric engulfment receptor: Tim4 binding, Tim4 transmembrane, TLR8 and TRAF6 signaling; SEQ ID NO: 153 (protein, CER117, amino acids 1-22 are signal peptide) MSKGLLLLWLVTELWWLYLTPAASEDTIIGFLGQPVTLPCHYLSWSQSRNSMCWGKGSCPNSKCNAELLRTDGTRIISRKSTKYTLLGKVQFGEVSLTISNTNRGDSGVYCCRIEVPGWFNDVKKNVRLELRRATTTKKPTTTTRPTTTPYVTTTTPELLPTTVMTTSVLPTTTPPQTLATTAFSTAVTTCPSTTPGSFSQETTKGSAFTTESETLPASNHSQRSMMTISTDIAVLRPTGSNPGILPSTSQLTTQKTTLTTSESLQKTTKSHQINSRQTILIIACCVGFVLMVLLFLAFLHHLFYWDVWFIYNVCLAKVKGYRSLSTSQTFYDAYISYDTKDASVTDWVINELRYHLEESRDKNVLLCLEERDWDPGLAIIDNLMQSINQSKKTVFVLTKKYAKSWNFKTAFYLALQRLMDENMDVIIFILLEPVLQHSQYLRLRQRICKSSILQWPDNPKAEGLFWQTLRNVVLTENDSRYNNMYVDSIKQYMSLLNCENSCGSSQSESDCCVAMASSCSAVTKDDSVGGTASTGNLSSSFMEEIQGYDVEFDPPLESKYECPICLMALREAVQTPCGHRFCKACIIKSIRDAGHKCPVDNEILLENQLFPDNFAKREILSLMVKCPNEGCLHKMELRHLEDHQAHCEFALMDCPQCQRPFQKFHINIHILKDCPRRQVSCDNCAASMAFEDKEIHDQNCPLANVICEYCNTILIREQMPNHYDLDCPTAPIPCTFSTFGCHEKMQRNHLARHLQENTQSHMRMLA			enrichment of islands expressing the intracellular marker IFNγ		enhanced engulfment
